Drawing on paper PMC8041869, this text covers EC50 and Kd for one substance.

The term EC50 denotes the concentration needed to bring the measured effect to its halfway point. Read a low EC50 as an effect from little substance. The term Kd denotes the concentration at which binding is half-saturated. The low end stands for higher affinity, the high end for lower affinity.

The target in assay [1] is SARS-CoV-2 S-protein receptor-binding domain (SARS-CoV-2) (UniProt P0DTC2). Put plainly: ELISA. In general terms: An ELISA detects its analyte on a solid surface through an enzyme-linked reagent.
Assay [2] has the same target. Kind of assay: BLI.

On to “human ACE2 extracellular domain, E37K variant, Fc-tagged dimeric form (from UniProt Q9BYF1-1 18-615) (Fc fusion)”, for which, in assay [1], the EC50 came out at 15.8 nM. This substance also had a Kd in assay [2] of 22.7 nM.
